Test results: PMC3581772

Assays:
[1] = target: T1, I59T human lysozyme (human) (UniProt P61626)
T1 sequence: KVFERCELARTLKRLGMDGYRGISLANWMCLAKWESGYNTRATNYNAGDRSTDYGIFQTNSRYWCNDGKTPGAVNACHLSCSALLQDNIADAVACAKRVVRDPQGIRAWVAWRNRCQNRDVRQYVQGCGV

[2] = target: amyloid β peptide Aβ(1–42) (UniProt P05067)

Chain of trypsin-activated α2M (P01023 whole entry, looked up): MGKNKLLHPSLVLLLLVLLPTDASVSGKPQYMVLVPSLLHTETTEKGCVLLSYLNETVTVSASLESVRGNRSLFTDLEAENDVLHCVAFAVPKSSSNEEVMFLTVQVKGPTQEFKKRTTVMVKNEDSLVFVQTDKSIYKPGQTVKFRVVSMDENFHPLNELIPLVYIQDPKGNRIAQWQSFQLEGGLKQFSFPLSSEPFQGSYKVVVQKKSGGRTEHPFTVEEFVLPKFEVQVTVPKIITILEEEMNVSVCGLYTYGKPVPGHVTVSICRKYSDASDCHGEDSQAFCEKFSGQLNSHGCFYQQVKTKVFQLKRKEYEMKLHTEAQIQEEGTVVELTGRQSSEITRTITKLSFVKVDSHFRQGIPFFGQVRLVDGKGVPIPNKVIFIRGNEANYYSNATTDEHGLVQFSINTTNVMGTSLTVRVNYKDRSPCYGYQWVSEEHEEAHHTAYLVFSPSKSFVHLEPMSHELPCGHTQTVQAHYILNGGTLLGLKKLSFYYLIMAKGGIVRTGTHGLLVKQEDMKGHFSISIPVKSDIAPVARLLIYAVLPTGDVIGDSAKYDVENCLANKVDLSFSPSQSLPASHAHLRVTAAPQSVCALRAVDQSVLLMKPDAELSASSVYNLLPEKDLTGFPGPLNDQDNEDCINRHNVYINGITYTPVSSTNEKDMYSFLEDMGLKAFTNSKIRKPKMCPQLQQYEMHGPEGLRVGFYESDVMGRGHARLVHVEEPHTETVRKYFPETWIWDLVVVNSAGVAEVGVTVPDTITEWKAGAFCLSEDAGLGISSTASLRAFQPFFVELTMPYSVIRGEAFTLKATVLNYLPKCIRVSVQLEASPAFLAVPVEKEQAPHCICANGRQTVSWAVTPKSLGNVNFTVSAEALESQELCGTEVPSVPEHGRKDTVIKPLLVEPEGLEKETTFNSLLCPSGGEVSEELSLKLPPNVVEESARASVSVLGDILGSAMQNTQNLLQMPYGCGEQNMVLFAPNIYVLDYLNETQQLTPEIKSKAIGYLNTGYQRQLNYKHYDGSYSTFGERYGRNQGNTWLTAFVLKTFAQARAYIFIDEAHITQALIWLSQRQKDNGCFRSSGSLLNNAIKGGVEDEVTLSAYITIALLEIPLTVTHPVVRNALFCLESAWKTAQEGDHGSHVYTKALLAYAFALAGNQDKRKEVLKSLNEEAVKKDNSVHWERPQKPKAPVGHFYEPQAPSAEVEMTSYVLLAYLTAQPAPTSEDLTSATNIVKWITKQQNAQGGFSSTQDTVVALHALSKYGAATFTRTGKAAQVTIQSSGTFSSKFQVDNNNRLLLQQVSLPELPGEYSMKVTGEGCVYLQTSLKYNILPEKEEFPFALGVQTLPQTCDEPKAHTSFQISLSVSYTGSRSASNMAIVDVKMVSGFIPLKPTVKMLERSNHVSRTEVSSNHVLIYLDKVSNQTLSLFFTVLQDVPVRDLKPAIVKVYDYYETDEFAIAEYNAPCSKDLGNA

Substance: trypsin-activated α2M (from UniProt P01023 24-1474) (complex)
- decrease of ThT fluorescence at the endpoint of I59T lysozyme fibril formation, lysozyme-to-α2M 10:1 [1]: > 90%
- suppression of ThT signal at the endpoint of Aβ(1–42) fibril formation, Aβ-to-α2M 10:1 [2]: > 80%
